For assay [1], the target named is T1, human TfR extracellular domain with N-terminal His tag (human, UniProt P02786 89-760).
T1 construct: Biotinylated in some assays; also called huTfR; HuTfR
Kind of assay: ELISA, TfR-coated plate, IgG in culture supernatant.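 Further: human or cynomolgus TfR coated at 2 µg/mL, supernatant IgG titrated in 1:5 steps for 1 h, bound antibody read with HRP anti-human Fcγ and TMB.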
Method: (§1) The Hu/Cy binding ELISA was performed in maxisorp plates coated with 2 μg/ml of purified human or cyno TfR in PBS at 4° C. overnight. Plates were washed with PBS/0.05% Tween 20 and blocked using Superblock blocking buffer in PBS (Thermo Scientific, Hudson, N.H.). Cell culture supernatants containing the expressed Ala scan variant IgGs were serially diluted 1:5 and added to the wells for 1 h. Plates were washed with PBS/0.05% Tween 20 and 1:1000 diluted HRP-Goat-anti human Fcγ (Jackson ImmunoResearch) was added the plate and incubated for 1 hour at room temperature. Plates were washed with PBS/0.05% Tween 20 and detected using TMB substrate (BioFX Laboratories, Owings Mills).

The target of assay [2] is T2, cyno TfR extracellular domain (analogous construct to human TfR ecd) (cynomolgus monkey, UniProt Q5RDH6 87-760 (Pongo abelii entry)).
T2 construct: also called cynoTfR ecd
T2 chain: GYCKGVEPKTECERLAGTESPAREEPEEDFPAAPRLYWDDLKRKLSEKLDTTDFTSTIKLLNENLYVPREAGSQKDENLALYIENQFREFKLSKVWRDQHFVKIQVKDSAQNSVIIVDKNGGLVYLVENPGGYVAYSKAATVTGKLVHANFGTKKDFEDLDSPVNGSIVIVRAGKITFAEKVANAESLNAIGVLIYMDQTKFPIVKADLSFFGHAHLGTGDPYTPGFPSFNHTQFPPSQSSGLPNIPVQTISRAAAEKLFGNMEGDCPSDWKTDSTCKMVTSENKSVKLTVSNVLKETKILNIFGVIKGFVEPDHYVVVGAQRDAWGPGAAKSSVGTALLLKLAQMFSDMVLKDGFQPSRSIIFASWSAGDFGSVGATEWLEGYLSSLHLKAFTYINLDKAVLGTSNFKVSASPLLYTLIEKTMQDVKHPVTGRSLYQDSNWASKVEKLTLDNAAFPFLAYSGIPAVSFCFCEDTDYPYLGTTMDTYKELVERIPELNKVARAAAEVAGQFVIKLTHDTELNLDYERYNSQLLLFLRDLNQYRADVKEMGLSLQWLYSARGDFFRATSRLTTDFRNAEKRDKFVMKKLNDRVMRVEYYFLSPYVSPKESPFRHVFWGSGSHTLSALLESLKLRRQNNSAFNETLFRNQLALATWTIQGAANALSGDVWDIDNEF
The description is as above.
Method: as §1

T1 sequence (P02786 89-760 G142S): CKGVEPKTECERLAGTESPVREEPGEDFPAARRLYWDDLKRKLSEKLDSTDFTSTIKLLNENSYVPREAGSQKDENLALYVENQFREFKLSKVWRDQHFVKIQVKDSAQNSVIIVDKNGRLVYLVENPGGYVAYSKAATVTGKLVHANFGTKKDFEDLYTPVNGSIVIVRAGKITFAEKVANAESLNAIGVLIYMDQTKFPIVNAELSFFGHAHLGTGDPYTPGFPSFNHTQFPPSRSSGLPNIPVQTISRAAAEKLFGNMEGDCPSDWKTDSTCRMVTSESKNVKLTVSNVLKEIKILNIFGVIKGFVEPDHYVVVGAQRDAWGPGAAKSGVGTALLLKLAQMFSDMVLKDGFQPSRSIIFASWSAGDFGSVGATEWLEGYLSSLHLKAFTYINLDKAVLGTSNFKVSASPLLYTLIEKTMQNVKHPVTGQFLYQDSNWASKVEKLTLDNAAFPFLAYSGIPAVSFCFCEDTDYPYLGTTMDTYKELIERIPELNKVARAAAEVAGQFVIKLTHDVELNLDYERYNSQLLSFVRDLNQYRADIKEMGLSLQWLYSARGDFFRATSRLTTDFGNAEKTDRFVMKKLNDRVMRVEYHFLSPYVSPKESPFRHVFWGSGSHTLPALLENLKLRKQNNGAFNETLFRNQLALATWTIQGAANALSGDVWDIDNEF

B1: hu15G11.v5 IgG Ala variant M34A (HVR-H1) (antibody, name in Kabat numbering, V domains shown)
VH: EVQLVQSGAEVKKPGASVKVSCKASGYTFTSYWAHWVRQAPGQRLEWIGEINPTNGRTNYIEKFKSRATLTVDKSASTAYMELSSLRSEDTAVYYCARGTRAYHYWGQGTMVTVSS
VL: DIQMTQSPSSLSASVGDRVTITCRASDNLYSNLAWYQQKPGKSPKLLVYDATNLADGVPSRFSGSGSGTDYTLTISSLQPEDFATYYCQHFWGTPLTFGQGTKVEIK
notes: IgG in cell culture supernatant
For the molecule B1, the figures for the EC50 in assay [1] and in assay [2] were 0.4 ng/mL and 1.1 ng/mL, respectively.

B2: hu15G11.v5 IgG Ala variant S31A (HVR-H1) (antibody, name in Kabat numbering, V domains shown)
VH: EVQLVQSGAEVKKPGASVKVSCKASGYTFTAYWMHWVRQAPGQRLEWIGEINPTNGRTNYIEKFKSRATLTVDKSASTAYMELSSLRSEDTAVYYCARGTRAYHYWGQGTMVTVSS
VL: DIQMTQSPSSLSASVGDRVTITCRASDNLYSNLAWYQQKPGKSPKLLVYDATNLADGVPSRFSGSGSGTDYTLTISSLQPEDFATYYCQHFWGTPLTFGQGTKVEIK
notes: IgG in cell culture supernatant; also called S31A (heavy chain)
B2: the values for the EC50 in assay [1] and in assay [2] were 0.05 ng/mL and 0.1 ng/mL, respectively.

B3: hu15G11.v5 IgG Ala variant S31A (HVR-L1) (antibody, V domains shown)
VH: EVQLVQSGAEVKKPGASVKVSCKASGYTFTSYWMHWVRQAPGQRLEWIGEINPTNGRTNYIEKFKSRATLTVDKSASTAYMELSSLRSEDTAVYYCARGTRAYHYWGQGTMVTVSS
VL: DIQMTQSPSSLSASVGDRVTITCRASDNLYANLAWYQQKPGKSPKLLVYDATNLADGVPSRFSGSGSGTDYTLTISSLQPEDFATYYCQHFWGTPLTFGQGTKVEIK
notes: IgG in cell culture supernatant; also called S31A (light chain)
Turning to B3, the results for the EC50 in assay [1] and in assay [2] were 0.3 ng/mL and 0.7 ng/mL, respectively.

B4: hu15G11.v5 IgG Ala variant S26A (HVR-L1) (antibody, V domains shown)
VH: EVQLVQSGAEVKKPGASVKVSCKASGYTFTSYWMHWVRQAPGQRLEWIGEINPTNGRTNYIEKFKSRATLTVDKSASTAYMELSSLRSEDTAVYYCARGTRAYHYWGQGTMVTVSS
VL: DIQMTQSPSSLSASVGDRVTITCRAADNLYSNLAWYQQKPGKSPKLLVYDATNLADGVPSRFSGSGSGTDYTLTISSLQPEDFATYYCQHFWGTPLTFGQGTKVEIK
notes: as for B1
Take B4: the EC50 is 0.2 ng/mL in assay [1] and 0.6 ng/mL in assay [2].

B5: hu15G11.v5 IgG Ala variant R24A (HVR-L1) (antibody, V domains shown)
VH: EVQLVQSGAEVKKPGASVKVSCKASGYTFTSYWMHWVRQAPGQRLEWIGEINPTNGRTNYIEKFKSRATLTVDKSASTAYMELSSLRSEDTAVYYCARGTRAYHYWGQGTMVTVSS
VL: DIQMTQSPSSLSASVGDRVTITCAASDNLYSNLAWYQQKPGKSPKLLVYDATNLADGVPSRFSGSGSGTDYTLTISSLQPEDFATYYCQHFWGTPLTFGQGTKVEIK
notes: as for B1
Turning to B5, the EC50 in assay [1] turned out to be 0.1 ng/mL; in assay [2], 0.4 ng/mL.

B6: hu15G11.v5 IgG Ala variant P52aA (HVR-H2) (antibody, name in Kabat numbering, V domains shown)
VH: EVQLVQSGAEVKKPGASVKVSCKASGYTFTSYWMHWVRQAPGQRLEWIGEINATNGRTNYIEKFKSRATLTVDKSASTAYMELSSLRSEDTAVYYCARGTRAYHYWGQGTMVTVSS
VL: DIQMTQSPSSLSASVGDRVTITCRASDNLYSNLAWYQQKPGKSPKLLVYDATNLADGVPSRFSGSGSGTDYTLTISSLQPEDFATYYCQHFWGTPLTFGQGTKVEIK
notes: as for B1
Take B6: the EC50 was 3.9 ng/mL in assay [1] and 8.1 ng/mL in assay [2].

B7: hu15G11.v5 IgG Ala variant N52A (HVR-H2) (antibody, V domains shown)
VH: EVQLVQSGAEVKKPGASVKVSCKASGYTFTSYWMHWVRQAPGQRLEWIGEIAPTNGRTNYIEKFKSRATLTVDKSASTAYMELSSLRSEDTAVYYCARGTRAYHYWGQGTMVTVSS
VL: DIQMTQSPSSLSASVGDRVTITCRASDNLYSNLAWYQQKPGKSPKLLVYDATNLADGVPSRFSGSGSGTDYTLTISSLQPEDFATYYCQHFWGTPLTFGQGTKVEIK
notes: IgG in cell culture supernatant; also called 15G11.N52A; 15G11.52A
Regarding B7, the EC50 in assay [1] turned out to be 0.3 ng/mL; in assay [2] it was 0.9 ng/mL.

B8: hu15G11.v5 IgG Ala variant N53A (HVR-L2) (antibody, V domains shown)
VH: EVQLVQSGAEVKKPGASVKVSCKASGYTFTSYWMHWVRQAPGQRLEWIGEINPTNGRTNYIEKFKSRATLTVDKSASTAYMELSSLRSEDTAVYYCARGTRAYHYWGQGTMVTVSS
VL: DIQMTQSPSSLSASVGDRVTITCRASDNLYSNLAWYQQKPGKSPKLLVYDATALADGVPSRFSGSGSGTDYTLTISSLQPEDFATYYCQHFWGTPLTFGQGTKVEIK
notes: as for B1
As to B8, the EC50 in assay [1] was determined as 0.3 ng/mL; in assay [2] it was 0.6 ng/mL.

B9: hu15G11.v5 IgG Ala variant T28A (HVR-H1) (antibody, name in Kabat numbering, V domains shown)
VH: EVQLVQSGAEVKKPGASVKVSCKASGYAFTSYWMHWVRQAPGQRLEWIGEINPTNGRTNYIEKFKSRATLTVDKSASTAYMELSSLRSEDTAVYYCARGTRAYHYWGQGTMVTVSS
VL: DIQMTQSPSSLSASVGDRVTITCRASDNLYSNLAWYQQKPGKSPKLLVYDATNLADGVPSRFSGSGSGTDYTLTISSLQPEDFATYYCQHFWGTPLTFGQGTKVEIK
notes: as for B1
Regarding B9, the EC50 in assay [1] was 0.4 ng/mL; in assay [2], 0.8 ng/mL.

B10: hu15G11.v5 IgG Ala variant S65A (HVR-H2) (antibody, name in Kabat numbering, V domains shown)
VH: EVQLVQSGAEVKKPGASVKVSCKASGYTFTSYWMHWVRQAPGQRLEWIGEINPTNGRTNYIEKFKARATLTVDKSASTAYMELSSLRSEDTAVYYCARGTRAYHYWGQGTMVTVSS
VL: DIQMTQSPSSLSASVGDRVTITCRASDNLYSNLAWYQQKPGKSPKLLVYDATNLADGVPSRFSGSGSGTDYTLTISSLQPEDFATYYCQHFWGTPLTFGQGTKVEIK
notes: IgG in cell culture supernatant; Kabat numbers after 52a lie one below the linear count
Turning to B10, the half-maximal effective concentration (EC50) amounted to 0.2 ng/mL in assay [1] and 0.7 ng/mL in assay [2].

B11: hu15G11.v5 IgG Ala variant N32A (HVR-L1) (antibody, V domains shown)
VH: EVQLVQSGAEVKKPGASVKVSCKASGYTFTSYWMHWVRQAPGQRLEWIGEINPTNGRTNYIEKFKSRATLTVDKSASTAYMELSSLRSEDTAVYYCARGTRAYHYWGQGTMVTVSS
VL: DIQMTQSPSSLSASVGDRVTITCRASDNLYSALAWYQQKPGKSPKLLVYDATNLADGVPSRFSGSGSGTDYTLTISSLQPEDFATYYCQHFWGTPLTFGQGTKVEIK
notes: as for B1
As to B11, the EC50 in assay [1] came to 1.6 ng/mL; in assay [2], 4 ng/mL.

B12: hu15G11.v5 IgG Ala variant R56A (HVR-H2) (antibody, name in Kabat numbering, V domains shown)
VH: EVQLVQSGAEVKKPGASVKVSCKASGYTFTSYWMHWVRQAPGQRLEWIGEINPTNGATNYIEKFKSRATLTVDKSASTAYMELSSLRSEDTAVYYCARGTRAYHYWGQGTMVTVSS
VL: DIQMTQSPSSLSASVGDRVTITCRASDNLYSNLAWYQQKPGKSPKLLVYDATNLADGVPSRFSGSGSGTDYTLTISSLQPEDFATYYCQHFWGTPLTFGQGTKVEIK
notes: as for B10
Turning to B12, the EC50 in assay [1] was 55.1 ng/mL; in assay [2], 5410 ng/mL.

B13: hu15G11.v5 IgG Ala variant N58A (HVR-H2) (antibody, name in Kabat numbering, V domains shown)
VH: EVQLVQSGAEVKKPGASVKVSCKASGYTFTSYWMHWVRQAPGQRLEWIGEINPTNGRTAYIEKFKSRATLTVDKSASTAYMELSSLRSEDTAVYYCARGTRAYHYWGQGTMVTVSS
VL: DIQMTQSPSSLSASVGDRVTITCRASDNLYSNLAWYQQKPGKSPKLLVYDATNLADGVPSRFSGSGSGTDYTLTISSLQPEDFATYYCQHFWGTPLTFGQGTKVEIK
notes: as for B10
Regarding B13, the EC50 in assay [1] was 6.3 ng/mL; in assay [2] it was 80.4 ng/mL.

B14: hu15G11.v5 IgG Ala variant N28A (HVR-L1) (antibody, V domains shown)
VH: EVQLVQSGAEVKKPGASVKVSCKASGYTFTSYWMHWVRQAPGQRLEWIGEINPTNGRTNYIEKFKSRATLTVDKSASTAYMELSSLRSEDTAVYYCARGTRAYHYWGQGTMVTVSS
VL: DIQMTQSPSSLSASVGDRVTITCRASDALYSNLAWYQQKPGKSPKLLVYDATNLADGVPSRFSGSGSGTDYTLTISSLQPEDFATYYCQHFWGTPLTFGQGTKVEIK
notes: as for B1
Turning to B14, the EC50 came out at 0.2 ng/mL in assay [1] and 0.8 ng/mL in assay [2].

The record behind these values is patent US20180057604A1 (Genentech, published 2018).
